This is an account of results in the nanobody polyreactivity screen of Harvey et al. (2022).

The series is described as follows: yeast display, Sf9 membrane polyspecificity reagent, FACS + sequencing; frameworks hold sequencing errors. The procedure, abridged:
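Galactose-induced (36–48 hours) yeast carrying a synthetic nanobody display library were exposed to 10% biotinylated, detergent-solubilized Sf9 membrane reagent at 4 °C for 1 hour. FACS followed streptavidin microbead enrichment, using low and high (top ~1%) gates for expression (anti-HA) and reagent binding (streptavidin). Colony PCR, MiSeq 2 × 250 sequencing and CDR-length filtering followed. Labels for polyreactivity reflect the gate of origin.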
With “QVQLVESGRGLVQEGGSLRLSCAPSGLIFRYYAMGWYRQAPGKEREFVAAISGRGASTYYADSVKGRFTISRDNAKITGYLQMNSLTPEDTAVYYCATYFPSAVVAFHMDYWGQGTQVTVSS”, the “polyreactivity (PSR sort gate)” value is recorded as “high polyreactivity”. Under “QVQLVESGGGLVQAGGSLRLSCAASGLIFGPYTMGWYRQAPGKERELVAAISRSGGITYYADSEKGRFTISRDNAKNTVYLQMNSLKPEDTAGYYCAARYSTQWSRYDYWGQGTQVTVSS” stands “high polyreactivity”; under “QVQLVESGGGLVQAGGSLRLSCAASGSTFGYNAMGWYRQAPGKERELVAAITRRGGITYYADSVKGRFTISRDNAKNTVYLQMNSLKPEDTAVYYCAKRLGYPGNSRNYYYWGQGTQVTVSS”, “high polyreactivity”; under “QVQLVESGGGLVQAGGSLRLSCAASGSTIGIYAMGGYRQAPGKERELVAAISSGGSTNYGDSVKGRFTISRDNEKNTVYLQMNSLKQEDTAVYYCAVESVYEYGGYVDSAYDYWGQGTQVTVSS”, “low polyreactivity”. With “QVQLVESGGGLVQAGGSLRLSCAASGFTFPDYAMGWYRQAPGKERELVAGISSTGDSTYYADSVKGRITISRDNAKNTVYLQMNSLKPEDTAVYYCNAAQERPIIILFSKYDYCGQGTQVTVSS” the entry was “low polyreactivity”; with “QVQLQESGGGLVQAGGSMRLSCAASGYFSNYYSMGLYRQAPGKERELVAGIGTGTSTYYADSVKGRFTISRDNAKNTVYQQMNSLKPEDTAVYYCAAPLDTSSRIFDYWGQGTQVTVSS”, “low polyreactivity”.

Take “QVQLVESGGGLVQAGGSLRLSCAASGHTFRKYAMGWYRQAPGKERELVASITWSDGITYYADSVKGRFTISRDNAKNTVYLQMNSLKPEDTAVYYCATDLVQSEYDYWGQGTQVTVSS”: the “polyreactivity (PSR sort gate)” value is reported as “low polyreactivity”. Under “QVQLVESGGGLVQAGGSLRLSCAASGRISNNAMGWYRQAPGKERELVAAITYRGSSTYYADSVKGRFTISRDNAKNTFYLQMISLKPEDTAVYYCAAQRSYAYEYWGQGTQVTVSS” stands “high polyreactivity”.

Turning to “QVQLVESGGGLVQAGGSLRLSCAASGLIFSWNAMGWYRQAPGKEWELVASISYSGGRTYYADSVKGRFTISRDNAKNTVYLQKNSLKPEDTAVYYCAADTNATTDPQMDYWGQGTQVTVSS”, the “polyreactivity (PSR sort gate)” value is “low polyreactivity”. With “QVQLVESGGGLVQAGGSLRLSCAASGINIRYYAMGWYRQAPGKERELVADITTGGTTYYADSVKGRFTISRDNAKNTVYLQMNSLKPEDTAVYYCAAYYFPTYSKTYIYPFDYWGQGTQVTVSS” the entry was “low polyreactivity”. Under “QDQLVESGGGLVQAGGSLRLSCAASGRISTYTMGWYRQAPGKERELVATISTDASTNYADSVKGRFTISRDNAKNTVYLQMNSLRPEDTAVYYCAAVIVNQDYDYWGQGTQVTVSS” stands “low polyreactivity”; under “QVQLVESGGGLVQAGGSLRLSCAASGRNFDDYAMGWYRQAPGKERELVAAISDSGGTTYYADSVKGRFTISRDNAKNTVYLQMNSLKPEDTAVYYCAKRYYGPHYWGQGTQVTVSS”, “low polyreactivity”. Turning to “QVQLEESGGGLVQAGGSLRLSCAASGRIFEYYAMGWYRQAPGIERELVAAINTGGNTYYADSVKGRFTISRDNAKNTVYLQMNSLKPEDTAVYYCATYPIWYGGYLSGTDYDYWGQGTQVTVSS”, the “polyreactivity (PSR sort gate)” value was “low polyreactivity”. Take “QVQLVESGGGLVQAGGSLRLSCAASGFIFTHNAMGWYRQAPGKERELVAAISRSGGRTYYADSVKGRFTISRDNAKNTVYLQMNSLKPEDTAVYYCAKDAYVYGMGYWGQGTQVTVSS”: the “polyreactivity (PSR sort gate)” value was “high polyreactivity”. In the case of “QVQLVESGGGLVQAGGSLRLSCAASGSTFNLYAMGWYRQAPGKERELVAAISDGDSSTYYADSVKGRFTISRDNAKNTVYLQMNSLKPEDTAVYYCNARDDVYLITPYFLVYVNLDYWGQGTQVTVSS”, the “polyreactivity (PSR sort gate)” value was “low polyreactivity”.

On to “QVQLVESGGGLVQAGGSLRLSCAASGFISKYYAMGWSRQAPGKERELVASISRDGSTSYADSVKGRFTISRDNAKNTVYLQMNSLKPEDTAVYYCAAPRRWGDKYSFGYWGQGTQVTVSS”, for which the “polyreactivity (PSR sort gate)” value is on record as “high polyreactivity”. With “QVQLVESGGGLVQAGGSLRLSCAASGRTFRNYAMGWYRQAPGKERELVAAISASGGSTYYADSVKGRFTISRDNAKNTVYLQMNSLKPEDTAVYYCAARYQGFGYRKYDYWGQGTQVTVSS” the entry was “high polyreactivity”; with “QVQLVESGGGLVQAGGSLRLSSAASGLIFWFYAMGWYRQAPGKERELVAAIDTDGGSTYYADSVKGRFTISRDNAKNTVYLQMNSLKPEDTAVYYCAATFAAYTQQTFYYWGQGTQVTVSS”, “low polyreactivity”. Under “QVQLVESGGGLVQAGGSLRLSCAASGSIFYRYAMGWYRQAPGKERELVAAISSNGVSTYYADSVKGRFTISRDNAKNTVYLQMTSLNPEDTAVYYCARDVYASPRLYTSRYNYWGQGTQVTVSS” stands “low polyreactivity”; under “QVQRVESGGGLVQAGGSLRLSCAASGRILYWYAMGWYRQAPGKERELVAGIDWSGGSTYYADSVKGRFTISRDKAKTTVYLQMNSLKPEDTAVYYCNAAQNRGRGSHRGESTYYYSGQGTQVTVSS”, “low polyreactivity”; under “QVQLVESGGGLVQAGGSLRLSSAASGSTLVYYDRGWYRQAPGKERELVATITGTDSTYYADSVKGRFTISRDNAKNTVYLQMNSLKPVDTADCAADRAASRPVYDYWGQGTQVTVSS”, “low polyreactivity”. “QVQLVESGGGLVQAGGSLRLSCAASGSTFYSYAMGWYRQAPGKERELVAAISSSSGSTYYADSVKGRFTISRDNAKNTVYLQMNSLKPEDTAVYYCNRGRRYSHKYDYWGQGTQVTVSS”: the “polyreactivity (PSR sort gate)” value is recorded as “high polyreactivity”.

Regarding “QVQLVESGGGLVQAGGSLRLSCAASGFTFRYYAMGWYRQEPGKERELVAAISRSDSRTYADSVKGRFTISRDNAMNTVYIQMNSLNPEDTAVYYCNARYGYSSYVFIFDYWGQGTQVTVSS”, the “polyreactivity (PSR sort gate)” value is listed as “high polyreactivity”. Under “QVQLVESGGGLVQAGGSLRLSCAASGRIFARNAMGWYRQAPGKERELVADITSTGSTNYADSVKGRFTISRDNAMITVYLQMNSLKPEDTAVYYCAADYYTGYVWEDYYWGQGTQVTVSS” stands “low polyreactivity”. As to “QVQLVESGGGLVQAGGSLRLSGDASGRIFRLYAMGWYRQAPGKEREFVAAISRSGGRTYYADSVKGRFTISRDNAKNTVYLQMNSLKPEDTAVYYCAAVYRQCGDYYSRDYYWGQGTQVTVSS”, the “polyreactivity (PSR sort gate)” value is “high polyreactivity”.

On to “QVQLVESGGGLFQAGGSLRLSCAASGSIFWGYDMGWYRQPPGKERELGARISYSGGSTSYADSVKGRFTISRDNAKNTVYLQMNSLKPEDTAVYYCAADEGGFWWTYPYDCWGQGTQVSVSS”, for which the “polyreactivity (PSR sort gate)” value is “low polyreactivity”.

“QVQLVESGGGLVQAGGSLRLSCAASGSIFDSNAMGWYRQAPGKERELVASITSDGDTYYADSVKGRFTISRDNAKNTVYLQMNSLKPEDTAVYYCAAYVPYSGLDYWGQGTQVTVSS”: the “polyreactivity (PSR sort gate)” value was “low polyreactivity”.

In the case of “QVQLVESVGGLVQAGGSLRLSCAASVYTFPRYTMGWYRQAPGKERELVAAINWSGGSTYYADSVKRRFTISRDNAKNTVYLQMNSLKPEDTAVYYCNKAYVSRYDYWGQGTQVTVSS”, the “polyreactivity (PSR sort gate)” value is “high polyreactivity”. On to “QVQLVESGRGLVQAGGSLRLSCEDSGNIFPYYAMGWYRQAPGKERELVAAISGSGDRTYYADSVNGRFTISRDNAKNTVYLQMNSLKPEDTAVYYCAAYRRYYGWYDYWGQGTQVTVSS”, for which the “polyreactivity (PSR sort gate)” value was “high polyreactivity”. Take “QVQLVESGGGIVQAGGSLRLSCAASGLTICDYAMGWYRQAPGKERELVAAISSSGGRTYYADSVKGRFTISRDNAKNTVYLQMNSLKPEDTAVYYCAAQSKYYQYYSWGQGTQVTVSS”: the “polyreactivity (PSR sort gate)” value is “high polyreactivity”. Under “QVQLVESGGGLVQGGSLRLSCAASGFTFPIYVMGGYRQAPGKERELVASISSVGSTNYADSVKGRFTISRDNAKNTVYLQMNSLKPEDTAVYYCNADAPNSYGGFDYWGQGTQVTVSS” stands “low polyreactivity”; under “QVQLVESGGGLVQAGGSLRLSCAASGFIFYYYAMGWYRQAPGKEREMFAAITQGGGSTYYADSVKGRFTISRDNAKNTVYFQMNSLKPEDTAVYYCAAVKRVYAHCRAFSSDFYYWGQGTQVNVSS”, “high polyreactivity”; under “QVQLVESGGGLVQAGGSLRLSCAASGFTFWDNAMGWYRQAPGKERELVAAISRRGGTTYYADSVKVRFTISRDNAKNTVYLQMNSLKPEDTAVYYCNKAFSLQIYATGMGYWGQGTQVTVSS”, “high polyreactivity”.

In the case of “QIQLVESVGGLVQAGGSLRLSCAASGSIFQYYAMGWYRQAPGKERELVAAISSGGSTYYADSVKGRFTISRENAKNTVYLQMNSLKPEDTAVYYCAADLQSGYTIPTSIVEYHPFDYWGQGTQGTVSS”, the “polyreactivity (PSR sort gate)” value is “low polyreactivity”. For the sequence “QVQLVESGGGLVQAGGSLRLSCAASGRIFTGNVMGWYRQAPGKERELVAAITYRGGSTYYADSVKGRFTISRDNAKNTVYLQMNSLKPEDTAVYYCAAGYFLGHTYGGDYWGQGTQVTVSS”, the “polyreactivity (PSR sort gate)” value was “low polyreactivity”.

On to “QVQLVESGGGLVQAGGSLRLSCAASGRIFHGNAMGWYRQAPGKEREMVAAITSGGRTFYADSVKGRFTISRDNAKNTVYLQMNSLIPEDTAVFYCNAPSIAGYAEYNSHDYWGQGTQVTVSS”, for which the “polyreactivity (PSR sort gate)” value is on record as “high polyreactivity”. With “QVQLVESGGGLVQAGGSLRLSCAASGYTFSHYAMGWYRQAPGKERELVAGITWSGGSTYYADSVKGRFTISRDYAKNTVYLQMNSLKPEDTSVYYCAAKYYWYYSYSGIPLFDYWGQGTQVTVSS” the entry was “low polyreactivity”; with “QVQLVESGGGLVQAGGSLRLSCAASGRTSDGYARGWYRQAPGKERELVAGITEGGGDTYYADSVKGRFTISRDNAKNTVYLQMNSLKPEDTAVYYCNAVEGSRLPYDYWGQGTQVTVSS”, “low polyreactivity”. Under “QVQLVESGGGLVQAGGSLRLSCDASGFTFIRNGMGWYRQAPGKERELVAAINSRGGNTYYADSVKGRFTISRDNAKNTVYLQMNSLKPEDTAVYYCNRVVQRWSTQYGYWGQGTQVTVSS” stands “high polyreactivity”; under “QVQLVESGGGLVQAGGSLRLSCAASGFSIYRNSMGWYRPAPGKERELVAGISSGGSTNYADSVKGRFTISRDNAKNTVYLQMNSLKPEDTAVYYCATRVYALWFGRYDYWGQGTQVTVSS”, “high polyreactivity”.
